This is an account of results in patent US20190282704A1 (ZOETIS SERVICES, published 2019).

B9: ZTS-361 (antibody)
heavy: QVLLVQSGAEVRTPGASVKIFCKASGYSFTSYTIHWLRQAPAQGLEWMGNINPTSGYTENNQRFKDRLTLTADTSTNTAYMELSSLRSADTAMYYCARWGFKYDGEWSFDVWGAGTTVTVSSASTTAPSVFPLAPSCGTTSGATVALACLVLGYFPEPVTVSWNSGALTSGVHTFPAVLQASGLYSLSSMVTVPSSRWLSDTFTCNVAHPPSNTKVDKTVRKTDHPPGPKPCDCPKCPPPEAAGAPSIFIFPPKPKDTLSISRTPEVTCLVVDLGPDDSDVQITWFVDNTQVYTAKTSPREEQFNSTYRVVSVLPILHQDWLKGKEFKCKVNSKSLPSPIERTISKAKGQPHEPQVYVLPPAQEELSRNKVSVTCLIKSFHPPDIAVEWEITGQPEPENNYRTTPPQLDSDGTYFVYSKLSVDRSHWQRGNTYTCSVSHEALHSHHTQKSLTQSPGK
light: EIQMTQSPSSLSASPGDRVTITCRASQGISIWLSWYQQKPGNIPKVLINKASNLHIGVPSRFSGSGSGTDFTLTISSLEPEDAATYYCLQSQTYPLTFGGGTKLEIKRSDAQPSVFLFQPSLDELHTGSASIVCILNDFYPKEVNVKWKVDGVVQNKGIQESTTEQNSKDSTYSLSSTLTMSSTEYQSHEKFSCEVTHKSLASTLVKSFQRSECQRE
B10: Peptide ZTS-562 (peptide)
peptide: CEISVPADTFERKSFC
modifications: constrained through the terminal cysteines; linker only shown in FIG. 13A
B11: Peptide ZTS-563 (peptide)
peptide: CAKVSMPADNFERKNFILTC
modifications: linker 1-20 via mT2a; reading uncertain

Experiment [1] addresses T1, equine IL-31 (Equine_IL31) (equine).
T1 construct: Production of the protein used as Biacore surface is not described; also called horse IL-31
T1 chain: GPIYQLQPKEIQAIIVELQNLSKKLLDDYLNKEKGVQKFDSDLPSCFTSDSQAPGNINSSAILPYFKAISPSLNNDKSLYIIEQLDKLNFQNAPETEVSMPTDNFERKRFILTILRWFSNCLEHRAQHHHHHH
Kind of experiment: Biacore, IL-31 surface, single antibody concentration.

In a further experiment the target is T2, human IL-31 (human, UniProt Q6EBC2 24-164).
T2 construct: Production of the protein used as Biacore surface is not described
T2 sequence: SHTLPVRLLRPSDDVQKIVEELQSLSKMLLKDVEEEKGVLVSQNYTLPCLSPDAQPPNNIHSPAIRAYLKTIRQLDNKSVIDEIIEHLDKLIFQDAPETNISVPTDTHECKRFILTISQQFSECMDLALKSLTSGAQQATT
The description is as above.

The experiment “Peptide ZTS-563” concerns the target B11. Kind of experiment: Biacore, peptide ZTS-563 immobilised on the surface. A general note: SPR reads the build-up and loss of mass on a sensor chip optically.
Experiment [2] concerns the target T3, canine IL-31 (Canine_IL31) (canine).
T3 chain: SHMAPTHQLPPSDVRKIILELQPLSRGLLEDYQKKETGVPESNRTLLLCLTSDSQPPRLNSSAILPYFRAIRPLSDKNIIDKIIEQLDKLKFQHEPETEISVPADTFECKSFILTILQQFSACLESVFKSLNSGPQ
Kind of experiment: cell-based or functional assay.

The experiment “Peptide ZTS-562” addresses B10. Kind of experiment: Biacore, peptide ZTS-562 immobilised on the surface.
In another experiment the target is T4, Peptide ZTS-564 (terminal cysteines constrained with the mT2b linker (CLIPS)).
T4 peptide: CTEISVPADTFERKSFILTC
Kind of experiment: Biacore, peptide ZTS-564 immobilised on the surface.

In the next experiment the target is T5, Peptide ZTS-561 (terminal cysteines constrained with the mT2a linker (CLIPS)).
T5 construct: Unconjugated constrained peptide; also called canine IL-31 15H05 mimotope ZTS-561
Kind of experiment: Biacore, peptide ZTS-561 immobilised on the surface.

The target of the experiment “ZTS-361” is B9. Kind of experiment: cell-based or functional assay.

Bridges are numbered along the chain shown (N, C = ends). Where no end group is shown, it is not given here. mT2a = not defined here

B1: ZIL94 (antibody, V domains shown)
VH: EVQLVDSGGDLVKPGGSLRLSCVASGFTFSTYFMSWVRQAPGRGLQWVALISSDGSGTYYADAVKGRFTISRDNAKNTLYLQMNSLRAEDTAMYYCAIFWRAFNDWGQGTLVTVSS
VL: QTVVIQEPSLSVSPGGTVTLTCGLNSGSVSTSNYPGWYQQTRGRTPRTIIYDTGSRPSGVPNRFSGSISGNKAALTITGAQPEDEADYYCSLYTDSDILVFGGGTHLTVLR
notes: Recombinant fully canine IgG (65_1 isotype); also called CAN-ZIL94
On to B1, for which the binding result in experiment [1] is listed as “no binding”.

B2: mouse anti IL-31 antibody 11E12 (antibody, V domains shown)
VH: QVQLQQSGAELVKPGASVKLSCKASGYTFKYYDINWVRQRPEQGLEWIGWIFPGDGGTKYNETFKGKATLTTDKSSSTAYMQLSRLTSEDSAVYFCARGGTSVIRDAMDYWGQGTSVTVSS
VL: DIVLTQSPASLAVSLGQRATISCRASESVDNYGISFMHWYQQKPGQPPKLLIYRASNLESGIPARFSGSGSRTDFTLTINPVETDDVATYYCQQSNKDPLTFGAGTKLELK
notes: Mouse monoclonal used for comparison; also called Mu-11E12; MU-11E12
As for B2, the binding result (in the experiment with human IL-31; in experiment [1]) was “no binding” in each case.

B3: mouse anti IL-31 antibody 15H05 (antibody, V domains shown)
VH: QVQLQQSAAELARPGASVKMSCKTSGYTFTSYTIHWIKQRPGQGLEWIGNINPTSGYTENNQRFKDKTTLTVDRSSNTAYLQLHSLTSEDSAVYFCARWGFKYDGEWSFDVWGAGTTVTVSS
VL: DIQMNQSPSSLSASLGDTITVTCRASQGISIWLSWYQQKPGNIPKVLINKASNLHIGVPPRFSGSGSGTHFTLTITSLQPEDIATYYCLQSQTYPLTFGGGTKLEIN
notes: Mouse hybridoma monoclonal; also called Mu-15H05; MU-15H05
B3: the binding result in the experiment with human IL-31 is “no binding”; in experiment [1], “binds”.

B4: ZIL69 (antibody, V domains shown)
VH: EVQLVESGGDLVKPAGSLRLSCVASGFTFSSYAMKWVRQAPGKGLQWVATINNDGTRTGYADAVRGRFTISKDNAKNTLYLQMDSLRADDTAVYYCTKGNAESGCTGDHCPPYWGQGTLVTVSS
VL: SSVLTQPPSVSVSLGQTATISCSGESLNKYYAQWFQQKAGQAPVLVIYKDTERPSGIPDRFSGSSAGNTHTLTISGARAEDEADYYCESAVSSETNVFGSGTQLTVLR
notes: Recombinant fully canine IgG (65_1 isotype); also called CAN-ZIL69
Consider B4, for which the binding result in experiment [1] is on record as “no binding”.

B5: ZIL171 (antibody, V domains shown)
VH: EVQLVESGGDLVKPAGSLRLSCVASGFTFRTYVMNWVRQAPGKGLQWVASINGGGSSPTYADAVRGRFTVSRDNAQNSLFLQMNSLRAEDTAIYFCVVSMVGPFDYWGHGTLVTVSS
VL: SSVLTQPPSVSVSLGQTATISCSGKSLSYYYAQWFQQKAGQAPVLVIYKDTERPSGIPDRFSGSSSGNTHTLTISGARAEDEADYYCESAVSSDTIVFGGGTHLTVLR
notes: Recombinant fully canine IgG (65_1 isotype); also called CAN-ZIL171
Consider B5, for which, in experiment [1], the binding result is on record as “no binding”.

B6: ZIL159 (antibody, V domains shown)
VH: EVQLVESGGDLVKPAGSLRLSCVASGFTFSSYVMTWVRQAPGKGLQWVAGINSEGSRTAYADAVKGRFTISRDNAKNTLYLQIDSLRAEDTAIYYCATGDIVATGTSYWGQGTLVTVSS
VL: SNVLTQPPSVSVSLGQTATISCSGETLNRFYTQWFQQKAGQAPVLVIYKDTERPSGIPDRFSGSSSGNIHTLTISGARAEDEAAYYCKSAVSIDVGVFGGGTHLTVFR
notes: Recombinant fully canine IgG (65_1 isotype); also called CAN-ZIL159
For B6, the binding result in experiment [1] is on record as “no binding”.

B7: ZIL154 (antibody, V domains shown)
VH: EVHLVESGGDLVKPWGSLRLSCVASGFTFSDRGMSWVRQSPGKGLQWVAYIRYDGSRTDYADAVEGRFTISRDNAKNTLYLQMNSLRAEDTAVYYCARWDGSSFDYWGQGTLVTVSS
VL: DIVVTQTPLSLSVSPGETASFSCKASQSLLHSDGNTYLDWFRQKPGQSPQRLIYKVSNRDPGVPDRFSGSGSGTDFTLRISGVEADDAGLYYCMQAIHFPLTFGAGTKVELKR
notes: Recombinant fully canine IgG (65_1 isotype); also called CAN-ZIL154
For B7, the binding result (with human IL-31; in experiment [1]) was “no binding” throughout.

B8: ZTS-927 (antibody)
heavy: QVLLVQSGAEVRTPGASVKIFCKASGYSFTSYTIHWLRQAPAQGLEWMGNINPTSGYTENNQRFKDRLTLTADTSTNTAYMELSSLRSADTAMYYCARWGFKYDGEWSFDVWGAGTTVTVSSASTTAPSVFPLAPSCGTTSGATVALACLVLGYFPEPVTVSWNSGALTSGVHTFPAVLQASGLYSLSSMVTVPSSRWLSDTFTCNVAHPPSNTKVDKTVRKTDHPPGPKPCDCPKCPPPEMLGGPSIFIFPPKPKDTLSISRTPEVTCLVVDLGPDDSDVQITWFVDNTQVYTAKTSPREEQFNSTYRVVSVLPILHQDWLKGKEFKCKVNSKSLPSPIERTISKAKGQPHEPQVYVLPPAQEELSRNKVSVTCLIKSFHPPDIAVEWEITGQPEPENNYRTTPPQLDSDGTYFVYSKLSVDRSHWQRGNTYTCSVSHEALHSHHTQKSLTQSPGK
light: EIQMTQSPSSLSASPGDRVTITCRASQGISIWLSWYQQKPGNIPKVLINKASNLHIGVPSRFSGSGSGTDFTLTISSLEPEDAATYYCLQSQTYPLTFGGGTKLEIKRSDAQPSVFLFQPSLDELHTGSASIVCILNDFYPKEVNVKWKVDGVVQNKGIQESTTEQNSKDSTYSLSSTLTMSSTEYQSHEKFSCEVTHKSLASTLVKSFQRSECQRE
With B8, the Kd (in general, the concentration at which binding is half-saturated) was determined as 1.48 nM with Peptide ZTS-563, 2.78 nM with Peptide ZTS-562, 4.13 nM in the experiment with Peptide ZTS-564 and 1.02 nM in the experiment with Peptide ZTS-561. In experiment [2], the “IC50, inhibition of canine IL-31-induced STAT3 phosphorylation, canine DH82 cells” value was 23.2 µg/mL. For the same molecule, in experiment [2], the “IC50, inhibition of canine IL-31-induced STAT3 phosphorylation, feline FCWF4 cells” value is 39.6 µg/mL.

For the molecule B9, in experiment [2], the “IC50, inhibition of canine IL-31-induced STAT3 phosphorylation, canine DH82 cells” value was 23 µg/mL and the “IC50, inhibition of canine IL-31-induced STAT3 phosphorylation, feline FCWF4 cells” value came out at 38.8 µg/mL.

For the molecule B10, in the experiment with ZTS-361, the “IC50 of peptide blocking mAb ZTS-361 inhibition of feline IL-31 mediated STAT3 phosphorylation in FCWF-4 cells, unconjugated” value came to 1.05 µg/mL.

Take B11: the “IC50 of peptide blocking mAb ZTS-361 inhibition of feline IL-31 mediated STAT3 phosphorylation in FCWF-4 cells, unconjugated” value in the experiment with ZTS-361 was found to be 1.74 µg/mL.
